Consider two molecules from patent US20040072736A1 (Boehringer Ingelheim, published 2004).

The assay addresses T1, human glucagon receptor (human, UniProt P47871 26-477).
T1 construct: whole, on cells; The assay used plasma membranes from stably transfected BHK-21 cells; also called cloned human glucagon receptor
The experiment in a line: competition radioligand binding; displacement of 125I-glucagon from BHK-21 membranes with the human glucagon receptor; filtration. As to the method:
Binding of peptides to the glucagon receptor was assayed in a competition binding-assay using a membrane fraction containing the cloned human glucagon receptor and radiolabeled glucagon.
For measuring competition with glucagon binding, 20 μg of the membrane suspension were incubated for 60 minutes in covered microtiter plates (Optiplate, Packard Instruments) with 50.000 cpm 125I-glucagon (Amersham Pharmacia), and one concentration of the test compound in a total volume of 100 μl. The protein-bound radioactivity is separated from unbound ligand by filtration and washing on a Multiscreen-Vakuumfiltrationsystem (Millipore) using GC/B filters (Packard) and measured after addition of 20 μl Microscint 20 in a topcount scintillation counter (Packard). The non-specific binding is defined as radioactivity bound in the presence of 1 μM glucagon (Wherl GmbH).

Bridges are numbered along the chain shown (N, C = ends).

T1 sequence (P47871 26-477): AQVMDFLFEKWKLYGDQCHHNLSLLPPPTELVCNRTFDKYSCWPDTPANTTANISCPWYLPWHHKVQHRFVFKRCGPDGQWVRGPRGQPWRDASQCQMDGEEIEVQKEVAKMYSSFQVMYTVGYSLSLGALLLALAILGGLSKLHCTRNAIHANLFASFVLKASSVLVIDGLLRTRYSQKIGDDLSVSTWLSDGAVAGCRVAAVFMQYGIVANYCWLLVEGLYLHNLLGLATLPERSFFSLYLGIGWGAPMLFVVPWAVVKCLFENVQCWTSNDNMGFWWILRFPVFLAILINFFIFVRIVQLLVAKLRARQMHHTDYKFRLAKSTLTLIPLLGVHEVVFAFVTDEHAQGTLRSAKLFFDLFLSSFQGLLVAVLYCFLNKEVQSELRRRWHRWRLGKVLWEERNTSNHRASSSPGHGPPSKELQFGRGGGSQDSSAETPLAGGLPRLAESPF

B1: methyl ester of the bicyclic nonadecapeptide of Example 1 (peptide)
peptide: GLPWGCPSDIPGWNTPWAC-OMe
modifications: disulfide 6-19; lactam N-9
SMILES: CC[C@H](C)[C@@H]1NC(=O)[C@@H]2CC(=O)NCC(=O)N[C@@H](CC(C)C)C(=O)N3CCC[C@H]3C(=O)N[C@@H](Cc3c[nH]c4ccccc34)C(=O)NCC(=O)N[C@@H](CSSC[C@@H](C(=O)OC)NC(=O)[C@H](C)NC(=O)[C@H](Cc3c[nH]c4ccccc34)NC(=O)[C@@H]3CCCN3C(=O)[C@H]([C@@H](C)O)NC(=O)[C@H](CC(N)=O)NC(=O)[C@H](Cc3c[nH]c4ccccc34)NC(=O)CNC(=O)[C@@H]3CCCN3C1=O)C(=O)N1CCC[C@H]1C(=O)N[C@@H](CO)C(=O)N2
The molecule B1 came in with an IC50 of 135 nM.

B2: bicyclic nonadecapeptide of Example 1 (SEQ ID NO. 5), free acid (R = H) (peptide)
peptide: GLPWGCPSDIPGWNTPWAC-OH
modifications: disulfide 6-19; lactam N-9
SMILES: CC[C@H](C)[C@@H]1NC(=O)[C@@H]2CC(=O)NCC(=O)N[C@@H](CC(C)C)C(=O)N3CCC[C@H]3C(=O)N[C@@H](Cc3c[nH]c4ccccc34)C(=O)NCC(=O)N[C@@H](CSSC[C@@H](C(=O)O)NC(=O)[C@H](C)NC(=O)[C@H](Cc3c[nH]c4ccccc34)NC(=O)[C@@H]3CCCN3C(=O)[C@H]([C@@H](C)O)NC(=O)[C@H](CC(N)=O)NC(=O)[C@H](Cc3c[nH]c4ccccc34)NC(=O)CNC(=O)[C@@H]3CCCN3C1=O)C(=O)N1CCC[C@H]1C(=O)N[C@@H](CO)C(=O)N2
As for B2, the 50% inhibitory concentration (IC50) came to 100 nM.
